Each block holds one binder with its values, some of them ahead of it.
What was measured:
[1] = molecular target: XPB (core TFIIH);XPD (core TFIIH);p62 (core TFIIH);p52 (core TFIIH);p44 (core TFIIH);p34 (core TFIIH);TTDA/p8 … (Homo sapiens;Homo sapiens;Homo …, UniProt P19447;P18074;P32780;Q92759;Q13888;Q13889;Q6ZYL4;P23025 …, |||||||); assay: cryo-EM structure (3.6 A); 2 mM Mg2+ at assembly; XPG E791A added (3:1 excess over TFIIH) but not visible in the map; glutaraldehyde-fixed gradient; DNA register shift not excluded; Complex assembly: 150 mM KCl, 20 mM KOH:HEPES pH 7.0, 10% glycerol, 2 mM MgCl2, 5 mM beta-mercaptoethanol; sucrose gradient pH 7.5, 4 C, 0.1% glutaraldehyde; helicase/triplex assays (turnover) left out; conditions: copies: 1;1;1;1;1;1;1;1; fork, 29 bp duplex 1:21-49 with 2:1-29; unpaired arms 20 nt 5' (strand 1: 1-20) and 20 nt 3' (strand 2: 30-49)
[2] = molecular target: human TFIIH core module (core TFIIH), seven subunits: XPB, XPD, p62, p52, p44, p34, TTDA (human, UniProt P19447 1-782; P18074 1-760; P32780 1-548; Q92759 1-462; Q13888 1-395; Q13889 …); assay: cell-based or functional assay

B1: cryo-EM DNA scaffold (forked) (mixed)
DNA 1: CAAAGTCACGACCTAGACACTGCGAGCTCGAATTCACTGGAGTGACCTC
DNA 2: GAGGTCACTCCAGTGAATTCGAGCTCGCAACAATGAGCACATACCTAGT
- binding result [1]: binds

- XPD 5′–3′ helicase activity of core TFIIH (rate of DNA unwinding, stopped-flow kinetics), with XPG against without [2]: 20 fold
B2: XPG (natural protein, human, UniProt P28715 1-1186, looked up)
chain: MGVQGLWKLLECSGRQVSPEALEGKILAVDISIWLNQALKGVRDRHGNSIENPHLLTLFHRLCKLLFFRIRPIFVFDGDAPLLKKQTLVKRRQRKDLASSDSRKTTEKLLKTFLKRQAIKTAFRSKRDEALPSLTQVRRENDLYVLPPLQEEEKHSSEEEDEKEWQERMNQKQALQEEFFHNPQAIDIESEDFSSLPPEVKHEILTDMKEFTKRRRTLFEAMPEESDDFSQYQLKGLLKKNYLNQHIEHVQKEMNQQHSGHIRRQYEDEGGFLKEVESRRVVSEDTSHYILIKGIQAKTVAEVDSESLPSSSKMHGMSFDVKSSPCEKLKTEKEPDATPPSPRTLLAMQAALLGSSSEEELESENRRQARGRNAPAAVDEGSISPRTLSAIKRALDDDEDVKVCAGDDVQTGGPGAEEMRINSSTENSDEGLKVRDGKGIPFTATLASSSVNSAEEHVASTNEGREPTDSVPKEQMSLVHVGTEAFPISDESMIKDRKDRLPLESAVVRHSDAPGLPNGRELTPASPTCTNSVSKNETHAEVLEQQNELCPYESKFDSSLLSSDDETKCKPNSASEVIGPVSLQETSSIVSVPSEAVDNVENVVSFNAKEHENFLETIQEQQTTESAGQDLISIPKAVEPMEIDSEESESDGSFIEVQSVISDEELQAEFPETSKPPSEQGEEELVGTREGEAPAESESLLRDNSERDDVDGEPQEAEKDAEDSLHEWQDINLEELETLESNLLAQQNSLKAQKQQQERIAATVTGQMFLESQELLRLFGIPYIQAPMEAEAQCAILDLTDQTSGTITDDSDIWLFGARHVYRNFFNKNKFVEYYQYVDFHNQLGLDRNKLINLAYLLGSDYTEGIPTVGCVTAMEILNEFPGHGLEPLLKFSEWWHEAQKNPKIRPNPHDTKVKKKLRTLQLTPGFPNPAVAEAYLKPVVDDSKGSFLWGKPDLDKIREFCQRYFGWNRTKTDESLFPVLKQLDAQQTQLRIDSFFRLAQQEKEDAKRIKSQRLNRAVTCMLRKEKEAAASEIEAVSVAMEKEFELLDKAKGKTQKRGITNTLEESSSLKRKRLSDSKGKNTCGGFLGETCLSESSDGSSSEDAESSSLMNVQRRTAAKEPKTSASDSQNSVKEAPVKNGGATTSSSSDSDDDGGKEKMVLVTARSVFGKKRRKLRRARGRKRKT
